Source: article PMC3496724
pKd: −log10 of the molar value.

Legend:
[1] = biological target: HIV-1 Tat protein (wild type, biologically active) (HIV-1 (human T lymphotropic virus type IIIB-BH-10, subtype B)) (UniProt P04610); experiment: SPR; BIACORE 3000; Tat immobilised by amine coupling on a CM3 chip; Env (5–1,000 nM) flowed in PBS pH 7.4 with 0.2% Tween 20, 300 mM NaCl, 5 mg/mL dextran; blank reference surface subtracted; single-site model
[2] = biological target: HIV-1 Tat protein (wild type, biologically active) (HIV-1 (human T lymphotropic virus type IIIB-BH-10, subtype B)) (UniProt P04610); experiment: ITC; VP-ITC; Tat (1.25 to 4.4 µM) in the cell, trimeric Env (12.5 to 47.0 µM in protein subunit) in the syringe; PBS pH 7.4

Substance	pKd [1]	T1/2 (complex dissociation half life) [1]	koff [1]	kon [1]	pKd [2]	stoichiometry N (Tat per gp120 subunit) [2]
monomeric ΔV2 Env (clade B, HIV-1 SF162) (natural protein)	7.04	23 min	0.00049 s⁻¹	5900 M⁻¹ s⁻¹		
trimeric wt Env (clade B, HIV-1 SF162) (natural protein)	7.42	23 min	0.00049 s⁻¹	14000 M⁻¹ s⁻¹	6.95	1
trimeric ΔV2 Env (clade B, HIV-1 SF162) (natural protein)	7.66	230 min	5e-05 s⁻¹	2600 M⁻¹ s⁻¹		
